Results as given in the supplement of paper PMC9112550, “Optimization of the antimicrobial peptide Bac7 by deep mutational scanning” (BMC Biology, 2022).

Test system: Escherichia coli TOP10
Test: shrunken log2 fold change of peptide-encoding DNA abundance (4.5 h post-induction vs induction); higher = less antimicrobial activity (less host growth inhibition)
Details: time post-induction: 4.5 h; library: site-saturation at positions 5, 18, 19, 20
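Further: peptides expressed intracellularly from a pBAD plasmid library in pooled LB shake-flask culture, induced with 0.3% L-arabinose, DNA abundance read by NGS, three biological replicates, DESeq2 with apeglm shrinkage.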

RRIRQRPPRLPRPRPRPWSQPRP and RRIRDRPPRLPRPRPRPVNQPRP are within 0.2 log units of each other in “shrunken log2 fold change” value: 0.0535 for the first, 0.0383 for the second.

Going from RRIRHRPPRLPRPRPRPNPAPRP to RRIRCRPPRLPRPRPRPYVIPRP, the “shrunken log2 fold change” value falls from -0.0505 to -0.381.

First: RRIRSRPPRLPRPRPRPVTIPRP
Second: RRIRWRPPRLPRPRPRPGPEPRP
The “shrunken log2 fold change” value of the first is lower: -0.373 for the first, 0.809 for the second.

First: RRIRTRPPRLPRPRPRPRCNPRP
Second: RRIRYRPPRLPRPRPRPVPYPRP
The “shrunken log2 fold change” value of the first is lower: -0.36 for the first, -0.0727 for the second.

Going from RRIRSRPPRLPRPRPRPSIGPRP to RRIRERPPRLPRPRPRPCSWPRP, the “shrunken log2 fold change” value falls from 0.347 to -0.0335.

Compared with RRIRHRPPRLPRPRPRPEYMPRP, RRIRTRPPRLPRPRPRPKFHPRP is lower in “shrunken log2 fold change” value: -0.05 for the first, -0.327 for the second.

Going from RRIRTRPPRLPRPRPRPLQMPRP to RRIRCRPPRLPRPRPRPDLPPRP, the “shrunken log2 fold change” value falls from 0.2 to -0.265.

RRIRWRPPRLPRPRPRPQTLPRP and RRIRHRPPRLPRPRPRPDKEPRP are within 0.2 log units of each other in “shrunken log2 fold change” value: 0.132 for the first, -0.00149 for the second.

Compared with RRIRSRPPRLPRPRPRPKMRPRP, RRIRVRPPRLPRPRPRPWFTPRP is lower in “shrunken log2 fold change” value: 0.269 for the first, 0.0469 for the second.

Compared with RRIRERPPRLPRPRPRPYFKPRP, RRIRARPPRLPRPRPRPDSLPRP is higher in “shrunken log2 fold change” value: -0.258 for the first, 0.0733 for the second.

Going from RRIRIRPPRLPRPRPRPPLVPRP to RRIRFRPPRLPRPRPRPVSFPRP, the “shrunken log2 fold change” value falls from 0.0482 to -0.414.

Compared with RRIRWRPPRLPRPRPRPRKMPRP, RRIRDRPPRLPRPRPRPSAAPRP is higher in “shrunken log2 fold change” value: 0.382 for the first, 1.02 for the second.

Compared with RRIRARPPRLPRPRPRPHKLPRP, RRIRHRPPRLPRPRPRPHNRPRP is lower in “shrunken log2 fold change” value: 0.214 for the first, -0.0976 for the second.

First: RRIRPRPPRLPRPRPRPYDGPRP
Second: RRIRARPPRLPRPRPRPFEQPRP
The “shrunken log2 fold change” value of the first is lower: -0.7 for the first, -0.072 for the second.

Compared with RRIRGRPPRLPRPRPRPVYCPRP, RRIRERPPRLPRPRPRPNHQPRP is lower in “shrunken log2 fold change” value: 0.0683 for the first, -0.259 for the second.

Going from RRIRCRPPRLPRPRPRPTIMPRP to RRIRARPPRLPRPRPRPLESPRP, the “shrunken log2 fold change” value rises from -0.562 to 0.486.

RRIRLRPPRLPRPRPRPIIWPRP and RRIRRRPPRLPRPRPRPIAQPRP are within 0.2 log units of each other in “shrunken log2 fold change” value: -0.000825 for the first, 0.129 for the second.

Going from RRIRIRPPRLPRPRPRPPTCPRP to RRIRERPPRLPRPRPRPMPFPRP, the “shrunken log2 fold change” value rises from -0.278 to 0.00529.

RRIRIRPPRLPRPRPRPYRTPRP and RRIRLRPPRLPRPRPRPTGFPRP are within 0.2 log units of each other in “shrunken log2 fold change” value: 0.0026 for the first, -0.158 for the second.

RRIRDRPPRLPRPRPRPNTFPRP and RRIRCRPPRLPRPRPRPMWKPRP are within 0.2 log units of each other in “shrunken log2 fold change” value: -0.0294 for the first, -0.0547 for the second.

Going from RRIRTRPPRLPRPRPRPRRTPRP to RRIRTRPPRLPRPRPRPQQDPRP, the “shrunken log2 fold change” value falls from 0.338 to -0.18.

RRIRWRPPRLPRPRPRPGWFPRP and RRIRRRPPRLPRPRPRPDEAPRP are within 0.2 log units of each other in “shrunken log2 fold change” value: 0.249 for the first, 0.376 for the second.

First: RRIRCRPPRLPRPRPRPKFDPRP
Second: RRIRQRPPRLPRPRPRPFLIPRP
The “shrunken log2 fold change” value of the first is higher: -0.0305 for the first, -1.81 for the second.

RRIRYRPPRLPRPRPRPIRSPRP and RRIRCRPPRLPRPRPRPDNDPRP are within 0.2 log units of each other in “shrunken log2 fold change” value: -0.214 for the first, -0.124 for the second.

Compared with RRIRARPPRLPRPRPRPNERPRP, RRIRPRPPRLPRPRPRPVLCPRP is lower in “shrunken log2 fold change” value: 0.531 for the first, 0.282 for the second.
